Data: patent publication US20250179161A1 (OTHAIR PROTHENA, published 2025)
Where a chain is given by its changes, count along the chain named. Several values for one entry are separate records, joined by “and”; a condition that tells them apart may be missing. Identical values can stand only once.

Key:
Amyloid Beta (Aβ) 1-42 [1] = molecular target: Amyloid Beta (Aβ) 1-42 (human); assay: cell-based or functional assay
Amyloid Beta (Aβ) 1-42 [2] = molecular target: T1, Amyloid Beta (Aβ) 1-42 (human); assay: direct ELISA on fibrillar Aβ1-42
T1 construct: The same peptide was used in several aggregation states: fibrils, a heterogeneous aggregate mixture, and soluble oligomers or aggregates; also called Aβ42; Aβ 42
T1 sequence (peptide, as listed by the source): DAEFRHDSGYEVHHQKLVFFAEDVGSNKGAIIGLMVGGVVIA

Amyloid Beta (Aβ) 1-42 [3] = molecular target: T1, Amyloid Beta (Aβ) 1-42; assay: cell-based or functional assay; remark: listed apart in the source
Amyloid Beta (Aβ) 1-42 [4] = molecular target: T1, Amyloid Beta (Aβ) 1-42; assay: direct ELISA on plate-coated Aβ42 fibrils (FIG. 21)
Amyloid Beta (Aβ) 1-42 [5] = molecular target: T1, Amyloid Beta (Aβ) 1-42; assay: SPR (BIAcore T200), Aβ1-42 fibrils immobilized on CM5, antibody as analyte, global 1:1 fit
Amyloid Beta (Aβ) 1-42 [6] = molecular target: T1, Amyloid Beta (Aβ) 1-42; assay: SPR (BIAcore T200), Aβ1-42 fibrils immobilized on CM5, antibody as analyte, global 1:1 fit; apparent KD
Amyloid Beta (Aβ) 1-42 [7] = molecular target: T1, Amyloid Beta (Aβ) 1-42; assay: competition ELISA, plate coated with fibril Aβ42, competitor hBP-biotin; IC50 of test divided by IC50 of hBP
Amyloid Beta (Aβ) 1-42 [8] = molecular target: T1, Amyloid Beta (Aβ) 1-42; assay: direct ELISA, fibril aBeta plate coat titrated, antibody held constant at 2 ug/ml; no unit in the table, x axis 'log ng/ml Abeta' [right panel]
Amyloid Beta (Aβ) 1-42 [9] = molecular target: T1, Amyloid Beta (Aβ) 1-42; assay: direct ELISA, antibody titrated on 2.5 ug/ml plate-coated fibril Abeta; the row head of the drawn table reads 'IC50', the note below it says EC50; no unit in the table, x axis 'log ng/ml antibody' [left panel]
Amyloid Beta (Aβ) 1-42 [10] = molecular target: T1, Amyloid Beta (Aβ) 1-42; assay: SPR (BIAcore T200), Aβ1-42 fibrils immobilized on CM5, Fab as analyte, global 1:1 fit; apparent KD
Amyloid Beta (Aβ) 1-42 [11] = molecular target: T1, Amyloid Beta (Aβ) 1-42; assay: competition ELISA on plate-coated Aβ42 fibrils; competitor: biotinylated hBP (bapineuzumab)
Amyloid Beta (Aβ) 1-42 [12] = molecular target: T1, Amyloid Beta (Aβ) 1-42; assay: SPR (BIAcore T200), Aβ1-42 fibrils immobilized on CM5, Fab as analyte, global 1:1 fit
Amyloid Beta (Aβ) 1-42 [13] = molecular target: T1, Amyloid Beta (Aβ) 1-42; assay: SPR on Aβ1-42 fibrils; this end is tied to h2726 by the KD values of Table 6
Amyloid Beta (Aβ) 1-42 [14] = molecular target: T1, Amyloid Beta (Aβ) 1-42; assay: direct ELISA on plate-coated Aβ42 fibrils (FIG. 21); this end is tied to h2726 by the EC50 values of Table 7
Amyloid Beta (Aβ) 1-42 [15] = molecular target: T1, Amyloid Beta (Aβ) 1-42; assay: SPR on Aβ1-42 fibrils; this end is tied to h2831 by the KD values of Table 6
Amyloid Beta (Aβ) 1-42 [16] = molecular target: T1, Amyloid Beta (Aβ) 1-42; assay: direct ELISA on plate-coated Aβ42 fibrils (FIG. 21); this end is tied to h2831 by the EC50 values of Table 7

B1: h2731 (antibody, V domains shown)
VH: EVQLLESGGGLVQPGGSLRLSCAASGFTFSNYGMSWVRQAPGKGLEWVASIRSGSGRTYYSDNVKGRFTISRDNSKNTLYLQMNSLRAEDTAVYYCVRYDHYSGSSDYWGQGTLVTVSS
VL: DVVMTQSPLSLPVTLGEPASISCKSSQSLLDYDGKTYLNWLLQKPGQSPQRLIYRVTNRDTGVPDRFSGSGSGTDFTLKISRVEAEDVGVYYCWQGTHFPRSFGQGTKVEIK
notes: Humanized IgG
blockade of binding of soluble Aβ to rat hippocampal synapses at 1:50 molar mAb:Aβ42 ratio (Amyloid Beta (Aβ) 1-42 [1]): > 90% | EC50 (Amyloid Beta (Aβ) 1-42 [2]): 0.0081 µg/mL and 0.054 nM | IC50 of Abeta spots per neuron (% Abeta control); the table gives no unit, the x axis is 'mAb (µg/mL)' (Amyloid Beta (Aβ) 1-42 [3]): 0.47 µg/mL | Total Area (under the curve of Abeta spots per neuron, % Abeta control) (Amyloid Beta (Aβ) 1-42 [3]): 7520 | fold increase in assay signal (OD490) relative to aducanumab (Amyloid Beta (Aβ) 1-42 [4]): 3 fold | koff (Amyloid Beta (Aβ) 1-42 [5]): 2.62e-05 s⁻¹ | kon (Amyloid Beta (Aβ) 1-42 [5]): 372000 M⁻¹ s⁻¹ | Kd (Amyloid Beta (Aβ) 1-42 [6]): 0.0704 nM | IC50 ratio (test:hBP) (Amyloid Beta (Aβ) 1-42 [7]): 0.61 | IC50 (half-maximal fibril Abeta coating concentration at constant antibody) (Amyloid Beta (Aβ) 1-42 [8]): 0.44 µg/mL | EC50 (Amyloid Beta (Aβ) 1-42 [9]): 0.0387 µg/mL

B2: h2826 (antibody, V domains shown)
VH: B1 VH with Y32F, I51V, S105T
VL: B1 VL with L15P, R55K, T57S, T61S, S102T
IC50 ratio (test:hBP) (Amyloid Beta (Aβ) 1-42 [7]): 1.1

B3: bapineuzumab Fab (Fab, V domains shown)
VH: B1 VH with S55G
VL: B1 VL with L15P, Y32S, R55L, T57S, N58K, R59L, T61S, S102T
notes: also called hBP
Kd (Amyloid Beta (Aβ) 1-42 [10]): 5.34 nM

B4: h2727 (antibody, V domains shown)
VH: B1 VH
VL: B1 VL with L15P, R55K, T57S, T61S
IC50 ratio (test:hBP) (Amyloid Beta (Aβ) 1-42 [7]): 3.06

B5: 4918 (antibody, V domains shown)
VH: B1 VH with Y32F, I51V, S55G, S105T
VL: B1 VL with L30M, Y32T, R55K, T57S, D60E, T61S, S102T
notes: It is not in the first reading's list; also called h4918G; h4918
binding result (Amyloid Beta (Aβ) 1-42 [11]): binds

B6: h2929 (antibody, V domains shown)
VH: B1 VH with Y32F, I51V, S103T, S105T
VL: B1 VL with L15P, K24R, L30V, K44R, R55K, T57S, T61S, T97S, F103Y
IC50 ratio (test:hBP) (Amyloid Beta (Aβ) 1-42 [7]): 1.16

B7: h2926 (antibody, V domains shown)
VH: B1 VH with Y32F, I51V, S103T, S105T
VL: B1 VL with L15P, R55K, T57S, T61S, S102T
IC50 ratio (test:hBP) (Amyloid Beta (Aβ) 1-42 [7]): 0.99

B8: h2927 (antibody, V domains shown)
VH: B1 VH with Y32F, I51V, S103T, S105T
VL: B1 VL with L15P, R55K, T57S, T61S
IC50 ratio (test:hBP) (Amyloid Beta (Aβ) 1-42 [7]): 1.6

B9: h4921G (antibody, V domains shown)
VH: B1 VH with Y32F, I51V, S55G, S105T
VL: B1 VL with Y32S, S102T
IC50 ratio (test:hBP) (Amyloid Beta (Aβ) 1-42 [7]): 1.01

B10: h49k3G (antibody, V domains shown)
VH: B1 VH with Y32F, I51V, S55G, S105T
VL: B1 VL with Y32S, R55K, T57S, T61S, S102T
notes: also called h49_hum3; 49human3
IC50 ratio (test:hBP) (Amyloid Beta (Aβ) 1-42 [7]): 2.16

B11: h3818G (antibody, V domains shown)
VH: B1 VH with S30A, I51V, S55G, G56S
VL: B1 VL with L30M, Y32T, R55K, T57S, D60E, T61S, S102T
IC50 ratio (test:hBP) (Amyloid Beta (Aβ) 1-42 [7]): 1.18

B12: h2931 (antibody, V domains shown)
VH: B1 VH with Y32F, I51V, S103T, S105T
VL: B1 VL
notes: Humanized IgG
IC50 of Abeta spots per neuron (% Abeta control); the table gives no unit, the x axis is 'mAb (µg/mL)' (Amyloid Beta (Aβ) 1-42 [3]): 0.627 µg/mL | Total Area (under the curve of Abeta spots per neuron, % Abeta control) (Amyloid Beta (Aβ) 1-42 [3]): 8480 | fold increase in assay signal (OD490) relative to aducanumab (Amyloid Beta (Aβ) 1-42 [4]): 3 fold | koff (Amyloid Beta (Aβ) 1-42 [5]): 2.05e-05 s⁻¹ | kon (Amyloid Beta (Aβ) 1-42 [5]): 335000 M⁻¹ s⁻¹ | Kd (Amyloid Beta (Aβ) 1-42 [6]): 0.0612 nM | IC50 ratio (test:hBP) (Amyloid Beta (Aβ) 1-42 [7]): 0.59 | IC50 (half-maximal fibril Abeta coating concentration at constant antibody) (Amyloid Beta (Aβ) 1-42 [8]): 0.335 µg/mL | EC50 (Amyloid Beta (Aβ) 1-42 [9]): 0.0435 µg/mL

B13: h2726 Fab (Fab, V domains shown)
VH: B1 VH
VL: B1 VL with L15P, R55K, T57S, T61S, S102T
koff (Amyloid Beta (Aβ) 1-42 [12]): 0.000259 s⁻¹ | kon (Amyloid Beta (Aβ) 1-42 [12]): 129000 M⁻¹ s⁻¹ | Kd (Amyloid Beta (Aβ) 1-42 [10]): 2.01 nM

B14: h2831 Fab (Fab, V domains shown)
VH: B1 VH with Y32F, I51V, S105T
VL: B1 VL
koff (Amyloid Beta (Aβ) 1-42 [12]): 0.000248 s⁻¹ | kon (Amyloid Beta (Aβ) 1-42 [12]): 108000 M⁻¹ s⁻¹ | Kd (Amyloid Beta (Aβ) 1-42 [10]): 2.31 nM

B15: h2726 (antibody, V domains shown)
VH: B1 VH
VL: B1 VL with L15P, R55K, T57S, T61S, S102T
notes: Humanized IgG, detected with anti-human IgG
IC50 of Abeta spots per neuron (% Abeta control); the table gives no unit, the x axis is 'mAb (µg/mL)' (Amyloid Beta (Aβ) 1-42 [3]): 1.67 µg/mL | Total Area (under the curve of Abeta spots per neuron, % Abeta control) (Amyloid Beta (Aβ) 1-42 [3]): 9070 | fold increase in assay signal (OD490) relative to aducanumab (Amyloid Beta (Aβ) 1-42 [4]): 3 fold | fold greater avidity (apparent KD) than aducanumab (Amyloid Beta (Aβ) 1-42 [13]): 5 to 11 fold | koff (Amyloid Beta (Aβ) 1-42 [5]): 2.12e-05 s⁻¹ | kon (Amyloid Beta (Aβ) 1-42 [5]): 393000 M⁻¹ s⁻¹ | Kd (Amyloid Beta (Aβ) 1-42 [6]): 0.054 nM | fold lower estimated EC50 relative to aducanumab (Amyloid Beta (Aβ) 1-42 [14]): 15 to 20 fold | IC50 ratio (test:hBP) (Amyloid Beta (Aβ) 1-42 [7]): 0.68 | IC50 (half-maximal fibril Abeta coating concentration at constant antibody) (Amyloid Beta (Aβ) 1-42 [8]): 0.387 µg/mL | EC50 (Amyloid Beta (Aβ) 1-42 [9]): 0.0403 µg/mL

B16: h4917G (antibody, V domains shown)
VH: B1 VH with Y32F, I51V, S55G, S105T
VL: B1 VL with Y32S, R55K, D60E, T61S
notes: also called h49_VK17
IC50 ratio (test:hBP) (Amyloid Beta (Aβ) 1-42 [7]): 2.69

B17: h2731 Fab (Fab, V domains shown)
VH: B1 VH
VL: B1 VL
koff (Amyloid Beta (Aβ) 1-42 [12]): 0.000289 s⁻¹ | kon (Amyloid Beta (Aβ) 1-42 [12]): 129000 M⁻¹ s⁻¹ | Kd (Amyloid Beta (Aβ) 1-42 [10]): 2.24 nM

B18: h2831 (antibody, V domains shown)
VH: B1 VH with Y32F, I51V, S105T
VL: B1 VL
notes: Humanized IgG
IC50 of Abeta spots per neuron (% Abeta control); the table gives no unit, the x axis is 'mAb (µg/mL)' (Amyloid Beta (Aβ) 1-42 [3]): 0.924 µg/mL | Total Area (under the curve of Abeta spots per neuron, % Abeta control) (Amyloid Beta (Aβ) 1-42 [3]): 6500 | fold increase in assay signal (OD490) relative to aducanumab (Amyloid Beta (Aβ) 1-42 [4]): 3 fold | fold greater avidity (apparent KD) than aducanumab (Amyloid Beta (Aβ) 1-42 [15]): 5 to 11 fold | koff (Amyloid Beta (Aβ) 1-42 [5]): 2.94e-05 s⁻¹ | kon (Amyloid Beta (Aβ) 1-42 [5]): 265000 M⁻¹ s⁻¹ | Kd (Amyloid Beta (Aβ) 1-42 [6]): 0.111 nM | fold lower estimated EC50 relative to aducanumab (Amyloid Beta (Aβ) 1-42 [16]): 15 to 20 fold | IC50 ratio (test:hBP) (Amyloid Beta (Aβ) 1-42 [7]): 0.77 | IC50 (half-maximal fibril Abeta coating concentration at constant antibody) (Amyloid Beta (Aβ) 1-42 [8]): 0.412 µg/mL | EC50 (Amyloid Beta (Aβ) 1-42 [9]): 0.0462 µg/mL

B19: h2931 Fab (Fab, V domains shown)
VH: B1 VH with Y32F, I51V, S103T, S105T
VL: B1 VL
koff (Amyloid Beta (Aβ) 1-42 [12]): 0.000199 s⁻¹ | kon (Amyloid Beta (Aβ) 1-42 [12]): 123000 M⁻¹ s⁻¹ | Kd (Amyloid Beta (Aβ) 1-42 [10]): 1.62 nM
